The experiment concerns the target human noradrenaline transporter (hNET) (human) (UniProt P23975). Kind of experiment: cell-based or functional assay.

Av IC50, inhibition of NA uptake via hNET (log M (unit not given)) data for one substance are collected here from patent US20060270832A1.

Sequence of human noradrenaline transporter (hNET) (human) (P23975 whole entry): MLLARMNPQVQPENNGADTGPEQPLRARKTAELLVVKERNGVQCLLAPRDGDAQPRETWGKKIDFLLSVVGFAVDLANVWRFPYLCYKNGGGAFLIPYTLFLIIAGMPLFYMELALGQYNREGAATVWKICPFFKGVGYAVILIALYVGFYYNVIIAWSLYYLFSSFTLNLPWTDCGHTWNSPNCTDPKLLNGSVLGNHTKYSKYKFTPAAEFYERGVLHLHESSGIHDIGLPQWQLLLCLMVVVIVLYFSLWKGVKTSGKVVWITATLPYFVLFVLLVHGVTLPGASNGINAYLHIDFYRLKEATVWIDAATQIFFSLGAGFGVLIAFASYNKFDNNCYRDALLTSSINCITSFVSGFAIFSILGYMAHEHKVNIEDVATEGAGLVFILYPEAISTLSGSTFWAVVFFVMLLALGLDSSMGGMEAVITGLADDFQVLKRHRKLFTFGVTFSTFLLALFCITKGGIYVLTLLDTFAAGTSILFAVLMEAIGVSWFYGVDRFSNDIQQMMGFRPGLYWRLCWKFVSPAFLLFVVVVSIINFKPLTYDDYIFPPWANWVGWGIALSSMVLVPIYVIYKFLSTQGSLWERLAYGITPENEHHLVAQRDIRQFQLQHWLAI

χ-MrIA (peptide) came in with an Av IC50, inhibition of NA uptake via hNET (log M (unit not given)) of -6.3.
